Data: the nanobody polyreactivity screen of Harvey et al. (2022)

Test: yeast display, Sf9 membrane polyspecificity reagent, FACS + sequencing; frameworks hold sequencing errors
Outline: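 Synthetic nanobody libraries on Saccharomyces cerevisiae BJ5465 were galactose-induced for 36–48 hours, stained 1 hour at 4 °C with 10% biotinylated, detergent-solubilized Sf9 membrane reagent and enriched on streptavidin microbeads. FACS then separated cells into low and high (top ~1%) gates by anti-HA (expression) and streptavidin (reagent binding) fluorescence. Genes were colony-PCR amplified, MiSeq 2 × 250 sequenced and CDR-length filtered. A clone's polyreactivity label is that of its gate of origin.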

| Sequence | polyreactivity (PSR sort gate) |
| --- | --- |
| QVQLVESGGGLVQAGGSLRISCAASGRTLFGYAMGWYRQAPGKERELVAAITYGATSTYADSVKGRFTISRDNAKNTVYLQMNSLKPEDTAVYYCNAYTPTDGFDYWGQGTQVTVSS | low polyreactivity |
| QVQLQESDGGLVQAGGSLRLSCAASGSISPQYYMGWYRQAPGKEREYVAISKGTTTYSADSVKGRLTISRVNAKNTVYLQMNSLKPEDTAVYCCAAGRWLQKVHAYWDQGTQVTVSS | low polyreactivity |
| QVQLVESGGGLVQAGGSLRLSCAASGNTFGYYALGWYRQAPGKERELVAGISSGGSTNYADSVKGRFTISRDNAKKTVYFQMNSLKPEDTAVYYCNARRYWLRYDYWGQVTQVTVSS | low polyreactivity |
| QVQLVESVGGLVQAGGSLRLSCAASGFIFWDYAMGWYRQAPGKERELVAAISDSGGDTYYADSVKGRFTISRDIAKNTVYLQMNSLKPEDTAVYYCAADVELWVFRGQQYDYWGQGTQVTVSS | low polyreactivity |
| QVQLVESGGGLVQAGGSLRLSCAASGSILYRYAMGWSRPAPGKERELDAAISYNGGRTYYADSVKGRFSISRDNAKNTVYLQMNSLKPEDTAVYYCNAAGRDDAYDYWGQGTQVTVSS | high polyreactivity |
| QVQLVESGGGLVQAGGSLRLSCAASGSTFVRYAMGWYRQAPGKERELVAAITWSGGITYYADSVKGRFTISRDNAKNTVYLQMNSLKPEDTAVYYCNAEQKQYEKSYDYWGQGTQVTVSS | low polyreactivity |
| QVQLVESGGGLVQAGGSLRLSCAASGITIRRYAMGWYRQAPGKERELVAAISTSGGGTYYADSVKGRFTISRDNAKNTVYLQMNSLKPEDTAVYYCAARYLGYLLSGYPPYDYWGQGSQVTVSS | high polyreactivity |
| QVQLVESGGGLVQAGGSLRLSCAASGITFSVYAMGWYRQAPGKERELVASISSGGTSTYYADSVKGRFTISRDNAKNNVYLQMNSLKTEDSAVYYCAAYSYYTGDQYSYDYWGQGTQVTVSS | low polyreactivity |
| QVNLVESGGGLVQAGGSLRLSCAASGSIFVGYAMRWYRQAPGKERELVAAISSNSASTYYADSVKGRFTISRDNAKNTLYLQMNSLKPEDTEVYYCATAYRSYWLNDYWGQGTQVTVSS | low polyreactivity |
| QVQLVESGGGLVQAGGSLRLSCAASGRTFLRNAMGWYRPAPGKERELVAAITSSGGRTYYADSVKGRFTISRDNAKNTVYLQMNSLKPEDTAVYYCATDTGWPGRDYWGQGPQVTVSS | high polyreactivity |
| QVQLVESGGGLVQAGGSLRLSCAASGSTIRWYAMGWDRQAPGKERELVASITWSGGGTYYADSVKGRFTISRDNAKNTVYLQMNSLKPEDTAVYYCNRRTWRYETRGDDYWGQGTQVTVSS | high polyreactivity |
| QGQLVESGGGLVQAGGRLRLSCAASGFTFRHNAMGWYRQAPGKETELVAAISWSDGSTYADSVKGRFTISRDNAKNTVYLQMNSLKPEDTAVYYCNADYPSYRYFTGRDYWGQGTQVTVSS | low polyreactivity |
| QVQLVESGGGLVQAGGSLRLSCAASGSTFDVYAMGWYRQAPGKERELVAGISSRGGRTYYADSVKGRFTISRDNAKNTVYLQMNSLKPEDTAVYYCAARYKGNPDRYGYWGQGTQVTVSS | high polyreactivity |
| QVQLVESGGGLVQAGGSLRLSCAASGSIFDVYAMGWYRQAPGKERELVAAIRTRGGSTYYADSVKGRFTISRDNAKNTVYLQMNSLKPEDTAVYYCAAGGETVIPWFDDYYWGQGTQVTVSS | low polyreactivity |
| QVQLVESGGGLVQAGGSLRLSCAASGSIFAGYAMGWYRPAPGKERELVAAINWTGDSTYYADSVKGRFTISRDNAKNTVYLQMNSLKPEDTAVYYCAAIRRQKGLWDYYYWGQGTQVTVSS | low polyreactivity |
| QVQLVESGGGLVQAGGSLRLSCAASGRIFHYYAMGWYRQAPGKERELVASISTGGNTYYADSVKGRFTISRDNAKNTVYLQMNSLKPEVTAVYYCAAVTVRKFYKGINYWYEYWGEGTQVTVSS | high polyreactivity |
| QVQLVESAGGLVQAGGSLPLSCAASGFTFISNAMGWYRQSPAKERELVAAISSSGGRTYYAVSVKGRFTISRDNAKNTVYLQMNSVKPEDTAVYYSNADRSLLYSRKIEYDYWGQGTKVTVSS | low polyreactivity |
